In publication PMC6978347:

Target: polymerization-deficient p62^1–102 (D69A/D73A) (human) (UniProt Q13501)
Test: ITC; VP-ITC, 25 °C, 10 mM HEPES pH 7.5, 150 mM NaCl; p62 D69A/D73A in the cell (5–20 μM), partner PB1 domain in the syringe (25–100 μM); one-site model; mean of three measurements

Kd: 26.8 nM
B1: MEKK3^43–127 (MEKK3–PB1) (domain or fragment)
chain: SDVRIKFEHNGERRIIAFSRPVKYEDVEHKVTTVFGQPLDLHYMNNELSILLKNQDDLDKAIDILDRSSSMKSLRILLLSQDRNH
